In ChEMBL document CHEMBL1155272, “Nucleoside-5'-monophosphates as prodrugs of adenosine A2A receptor agonists activated by ecto-5'-nucleotidase” (J Med Chem, 2009):

Substrate: Nc1ncnc2c1ncn2[C@@H]1O[C@H](COP(=O)(O)O)[C@@H](O)[C@H]1O
Experiment: Activity at alkaline phosphatase

B1: Alkaline phosphatase, tissue-nonspecific isozyme (Homo sapiens), P05186 (protein)
chain: MISPFLVLAIGTCLTNSLVPEKEKDPKYWRDQAQETLKYALELQKLNTNVAKNVIMFLGDGMGVSTVTAARILKGQLHHNPGEETRLEMDKFPFVALSKTYNTNAQVPDSAGTATAYLCGVKANEGTVGVSAATERSRCNTTQGNEVTSILRWAKDAGKSVGIVTTTRVNHATPSAAYAHSADRDWYSDNEMPPEALSQGCKDIAYQLMHNIRDIDVIMGGGRKYMYPKNKTDVEYESDEKARGTRLDGLDLVDTWKSFKPRYKHSHFIWNRTELLTLDPHNVDYLLGLFEPGDMQYELNRNNVTDPSLSEMVVVAIQILRKNPKGFFLLVEGGRIDHGHHEGKAKQALHEAVEMDRAIGQAGSLTSSEDTLTVVTADHSHVFTFGGYTPRGNSIFGLAPMLSDTDKKPFTAILYGNGPGYKVVGGERENVSMVDYAHNNYQAQSAVPLRHETHGGEDVAVFSKGPMAHLLHGVHEQNYVPHVMAYAACIGANLGHCAPASSAGSLAAGPLLLALALYPLSVLF
  Km: 441 µM
